Drawing on patent publication US20200297860 (published 2020), this text covers EC50 and Kd for eight molecules.

The chains are these.
T1: human mesothelin (human, UniProt Q13421)
T1 chain: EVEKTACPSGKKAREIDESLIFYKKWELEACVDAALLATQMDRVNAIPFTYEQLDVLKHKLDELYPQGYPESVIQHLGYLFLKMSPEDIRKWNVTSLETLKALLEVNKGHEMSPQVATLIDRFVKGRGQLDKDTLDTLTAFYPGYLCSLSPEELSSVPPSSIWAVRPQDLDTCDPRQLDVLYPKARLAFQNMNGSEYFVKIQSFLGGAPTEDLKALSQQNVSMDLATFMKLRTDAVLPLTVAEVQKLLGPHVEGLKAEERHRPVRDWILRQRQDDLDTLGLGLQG

B1: MORAb003-DBCO-PEG2 eribulin (antibody, V domains shown)
VH: EVQLVESGGGVVQPGRSLRLSCSASGFTFSGYGLSWVRQAPGKGLEWVAMISSGGSYTYYADSVKGRFAISRDNAKNTLFLQMDSLRPEDTGVYFCARHGDDPAWFAYWGQGTPVTVSS
VL: DIQLTQSPSSLSASVGDRVTITCSVSSSISSNNLHWYQQKPGKAPKPWIYGTSNLASGVPSRFSGSGSGTDYTFTISSLQPEDIATYYCQQWSSYPYMYTFGQGTKVEIK
B2: MORAb003-DBCO-ER1138856 (antibody, V domains shown)
VH: B1 VH
VL: B1 VL
B3: MORAb003-DBCO-PEG4 VCP eribulin (antibody, V domains shown)
VH: B1 VH
VL: B1 VL
B4: MORAb003-ER1235638 (antibody, V domains shown)
VH: B1 VH
VL: B1 VL
B5: MORAb003-DBCO-PEG4 eribulin (antibody, V domains shown)
VH: B1 VH
VL: B1 VL
B6: MORAb003-ER1236941 (antibody, V domains shown)
VH: B1 VH
VL: B1 VL
B7: 111B10-zu (antibody, V domains shown)
VH: EVQLVESGGGLVQPGGSLRLSCAASGFSLNNYAMSWVRQAPGKGLEWIGSISTGGLAFYANWAKGRFTISRDNSKNTLYLQMNSLRAEDTAVYYCARNGGGSYIFYYFDLWGQGTLVTVSS
VL: DIQMTQSPSSLSASVGDRVTITCQASQSISSYLSWYQQKPGKAPKLLIYSASTLASGVPSRFSGSGSGTDFTLTISSLQCEDAATYYCQSYYDIGTSTFGGGTKVEIK
B8: 346C6-zu (antibody, V domains shown)
VH: EVQLVESGGGLVQPGGSLRLSCAASGFSLSSYAMIWVRQAPGKGLEWIGTISTGGITYYASWAKGRFTISRDNSKNTLYLQMNSLRAEDTAVYYCARGGYAASSAYYLPYYFDLWGQGTLVTVSS
VL: DIQMTQSPSSLSASVGDRVTITCQSSQSVYNNNNLAWYQQKPGKVPKLLIYLASTLASGVPSRFSGSGSGTDFTLTISSLQCEDAATYYCLGGCDDDADTFAFGGGTKVEIK

The target in the first experiment is human folate receptor alpha (human). Nature of the experiment: ELISA. For orientation: ELISA stands for enzyme-linked immunosorbent assay.
Chain of human folate receptor alpha (human) (P15328 whole entry): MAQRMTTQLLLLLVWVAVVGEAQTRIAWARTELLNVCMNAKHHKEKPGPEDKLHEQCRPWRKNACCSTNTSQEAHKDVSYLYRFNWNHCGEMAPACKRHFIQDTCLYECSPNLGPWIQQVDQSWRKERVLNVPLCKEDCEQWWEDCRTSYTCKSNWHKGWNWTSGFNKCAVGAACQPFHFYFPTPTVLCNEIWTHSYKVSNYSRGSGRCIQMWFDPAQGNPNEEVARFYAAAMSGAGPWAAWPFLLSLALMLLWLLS
In general, EC50 refers to the concentration giving half of the maximal effect. A lower EC50 goes with higher potency in that assay. Turning to B1, the EC50 amounted to 0.0191 µg/mL.
For B2, a half-maximal response (EC50) required 0.015 µg/mL.
On the same count and under the same terms, the same measure for B3: 0.016 µg/mL; for B4: 0.0153 µg/mL.
Still for that read-out and setting: the same measure for B5: 0.0133 µg/mL; for B6: 0.013 µg/mL.

The target of another experiment is T1, human mesothelin. Kind of experiment: SPR. In general terms: SPR reads the build-up and loss of mass on a sensor chip optically.
The term Kd denotes the constant that tells how readily two partners part at equilibrium. Read a high Kd as lower affinity. Regarding B7, the Kd was 6.5 nM.
The same measure, in the same setting: the same measure for B8: 8.9 nM.
